Biological target: NHERF2_2, Q15599
Assay: holdup assay
Design: key: below the threshold = too weak to quantify, mostly under pKd 3.1 to 4
Conditions: modified: phospho on T at position -2 from the C-terminal residue

Sequence of NHERF2_2, Q15599 (Q15599 142-238): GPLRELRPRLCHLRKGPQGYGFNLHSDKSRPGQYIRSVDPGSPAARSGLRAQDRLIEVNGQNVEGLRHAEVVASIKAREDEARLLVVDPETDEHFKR

Row | Binder | pKd
1 | SRSRRRETAL [HPV33-E6_-2P, P06427] | below the threshold

Same assay, conditions: plain residues with an end cap or a label only (N-terminal biotin on a linker: ado-ado)

Row | Binder | pKd
2 | PLPPEEESWV [GAS2L2, Q8NHY3] | 4.62
3 | EFKQTSSFLV [JAM1, Q9Y624] | below the threshold
4 | QLKSGRDSTV [TMEM178A, Q8NBL3] | 3.55
5 | DSEEELPTRL [GRK6, P43250] | 4.51
6 | SGDGKTSVWI [GJC1, P36383] | 3.98
7 | EPAKETTTNV [SLC2A3, P11169] | 3.69
8 | PKSNSSKEYV [CLDN7, O95471] | below the threshold
9 | YAEKRMLTEV [KCNA6, P17658] | below the threshold
10 | VYEVPVETKF [SLC26A3, P40879] | 5.04
11 | RSPVATATSC [DUSP5, Q16690] | below the threshold
12 | QKASRNESTF [POLR1D, P0DPB6] | 3.7
13 | GTMFLRETSL [GUCY1A2, P33402] | 4.56
14 | MQILSKPEFI [NPSR1, Q6W5P4] | below the threshold
15 | MLPANYVEAI [NEB, P20929] | below the threshold
16 | NISARRFTLC [FAM167B, Q9BTA0] | below the threshold
17 | QRYPGNQTTC [CCL24, O00175] | below the threshold
18 | KEKASTETEC [TRPM1, Q7Z4N2] | below the threshold
19 | NSTHNLKDYV [CLDN20, P56880] | below the threshold
20 | DFKHTKSFII [JAM2, P57087] | below the threshold

Row | Binder | pKd
21 | THREVKFTSL [CD46, P15529] | 4.36
22 | ADEMICITTL [CACNA1D, Q01668] | 4.63
23 | STYCDYTIEI [FAM71C, Q8NEG0] | below the threshold
24 | IKLETKKTKL [SLC15A2, Q16348] | 4.32
25 | NNMAFETTHF [SLC5A12, Q1EHB4] | 4.7
26 | HLSTRQGTCV [ATRNL1, Q5VV63] | below the threshold
27 | PLATCDETSI [SEMA4F, O95754] | 4.31
28 | HDDYFYHDEL [RCN2, Q14257] | 4.11
29 | DLLGGGSDSI [TNRC6B, Q9UPQ9] | below the threshold
30 | KKTPVSRSHL [SLC22A3, O75751] | 3.92
31 | LPPPESESKV [KCNJ9, Q92806] | below the threshold
32 | HYPASPDSWV [CTNND2, Q9UQB3] | 3.84
33 | GQNMTVSVVI [PRLHR, P49683] | 3.69
34 | KLQNPNQSVV [TYRP1, P17643] | below the threshold
35 | GVHSNDHSVV [LPAR1, Q92633] | below the threshold
36 | LVEEEEPMNL [HDAC7, Q8WUI4] | 3.5
37 | SSSVNVSSNL [CXCR1, P25024] | 4.44
38 | QKNKDREYYV [NRXN3, Q9HDB5] | below the threshold
39 | RDYTQSSSSL [GRM5, P41594] | 4.52

Row | Binder | pKd
40 | TKEIPNCTSV [SORCS3, Q9UPU3] | 3.94
41 | PALKNGQYWV [CSPG4, Q6UVK1] | below the threshold
42 | WAKEKQHTRL [SLC17A1, Q14916] | 4.39
43 | SKQFDKNAYV [CLDN10, P78369] | below the threshold
44 | KIEDVEITLV [FCHSD2, O94868] | 3.86
45 | SAGADSETHC [SLCO1B1, Q9Y6L6] | 3.72
46 | NTALVESEDL [PALLS, Q8WX93;Q8WX93-1] | 4.64
47 | FVFESRKEIL [TBPL1, P62380] | below the threshold
48 | DYSNLRETDI [ADRA1D, P25100] | below the threshold
49 | KAEEKPPSKV [SCN4B, Q8IWT1] | below the threshold
50 | GNDPDRGTSI [GRID2, O43424] | 3.66
51 | TKDKVQETQI [LRRC4, Q9HBW1] | 4.11
52 | KPDKQEEFYA [SDC3, O75056] | below the threshold
53 | PAALPESTHM [SLC9A3, P48764] | 4.94
54 | VCMGDHWFDV [PRKN, O60260] | below the threshold
55 | SQPLLVHDDV [KIT, P10721] | below the threshold
56 | PGKKPEDSRV [SLCO2B1, O94956] | 3.47
57 | PSDSVGKDVF [EGLN1, Q9GZT9] | below the threshold
58 | LLQEEWETVM [PTH1R, Q03431] | 5.14

Biological target: PDZRN4_1, Q6ZMN7
Assay: holdup assay
Design: key: below the threshold = too weak to quantify, mostly under pKd 3.1 to 4
Conditions: modified: phospho on T at position -2 from the C-terminal residue

Sequence of PDZRN4_1, Q6ZMN7 (Q6ZMN7 213-318): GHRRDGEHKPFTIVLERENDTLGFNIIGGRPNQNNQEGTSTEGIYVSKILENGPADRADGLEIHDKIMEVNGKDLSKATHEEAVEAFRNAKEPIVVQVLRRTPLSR

Row | Binder | pKd
59 | SRSRRRETAL [HPV33-E6_-2P, P06427] | below the threshold

Same assay, conditions: plain residues with an end cap or a label only (N-terminal biotin on a linker: ado-ado)

Row | Binder | pKd
60 | PLPPEEESWV [GAS2L2, Q8NHY3] | 4.13
61 | EFKQTSSFLV [JAM1, Q9Y624] | below the threshold
62 | QLKSGRDSTV [TMEM178A, Q8NBL3] | 3.53
63 | DSEEELPTRL [GRK6, P43250] | below the threshold
64 | SGDGKTSVWI [GJC1, P36383] | below the threshold
65 | EPAKETTTNV [SLC2A3, P11169] | below the threshold
66 | PKSNSSKEYV [CLDN7, O95471] | below the threshold
67 | YAEKRMLTEV [KCNA6, P17658] | below the threshold
68 | VYEVPVETKF [SLC26A3, P40879] | below the threshold
69 | RSPVATATSC [DUSP5, Q16690] | below the threshold
70 | QKASRNESTF [POLR1D, P0DPB6] | below the threshold
71 | GTMFLRETSL [GUCY1A2, P33402] | 5.71
72 | MQILSKPEFI [NPSR1, Q6W5P4] | below the threshold
73 | MLPANYVEAI [NEB, P20929] | below the threshold
74 | NISARRFTLC [FAM167B, Q9BTA0] | below the threshold
75 | QRYPGNQTTC [CCL24, O00175] | below the threshold
76 | KEKASTETEC [TRPM1, Q7Z4N2] | below the threshold
77 | NSTHNLKDYV [CLDN20, P56880] | below the threshold
78 | DFKHTKSFII [JAM2, P57087] | below the threshold

Row | Binder | pKd
79 | THREVKFTSL [CD46, P15529] | 4.57
80 | ADEMICITTL [CACNA1D, Q01668] | 3.72
81 | STYCDYTIEI [FAM71C, Q8NEG0] | below the threshold
82 | IKLETKKTKL [SLC15A2, Q16348] | 3.56
83 | NNMAFETTHF [SLC5A12, Q1EHB4] | below the threshold
84 | HLSTRQGTCV [ATRNL1, Q5VV63] | 3.76
85 | PLATCDETSI [SEMA4F, O95754] | 4.33
86 | HDDYFYHDEL [RCN2, Q14257] | below the threshold
87 | DLLGGGSDSI [TNRC6B, Q9UPQ9] | below the threshold
88 | KKTPVSRSHL [SLC22A3, O75751] | 3.66
89 | LPPPESESKV [KCNJ9, Q92806] | below the threshold
90 | HYPASPDSWV [CTNND2, Q9UQB3] | 4.14
91 | GQNMTVSVVI [PRLHR, P49683] | below the threshold
92 | KLQNPNQSVV [TYRP1, P17643] | below the threshold
93 | GVHSNDHSVV [LPAR1, Q92633] | below the threshold
94 | LVEEEEPMNL [HDAC7, Q8WUI4] | below the threshold
95 | SSSVNVSSNL [CXCR1, P25024] | below the threshold
96 | QKNKDREYYV [NRXN3, Q9HDB5] | below the threshold
97 | RDYTQSSSSL [GRM5, P41594] | below the threshold

Row | Binder | pKd
98 | TKEIPNCTSV [SORCS3, Q9UPU3] | 3.94
99 | PALKNGQYWV [CSPG4, Q6UVK1] | below the threshold
100 | WAKEKQHTRL [SLC17A1, Q14916] | 3.85
101 | SKQFDKNAYV [CLDN10, P78369] | below the threshold
102 | KIEDVEITLV [FCHSD2, O94868] | 3.64
103 | SAGADSETHC [SLCO1B1, Q9Y6L6] | below the threshold
104 | NTALVESEDL [PALLS, Q8WX93;Q8WX93-1] | below the threshold
105 | FVFESRKEIL [TBPL1, P62380] | below the threshold
106 | DYSNLRETDI [ADRA1D, P25100] | below the threshold
107 | KAEEKPPSKV [SCN4B, Q8IWT1] | below the threshold
108 | GNDPDRGTSI [GRID2, O43424] | 3.49
109 | TKDKVQETQI [LRRC4, Q9HBW1] | 4.6
110 | KPDKQEEFYA [SDC3, O75056] | below the threshold
111 | PAALPESTHM [SLC9A3, P48764] | below the threshold
112 | VCMGDHWFDV [PRKN, O60260] | below the threshold
113 | SQPLLVHDDV [KIT, P10721] | below the threshold
114 | PGKKPEDSRV [SLCO2B1, O94956] | below the threshold
115 | PSDSVGKDVF [EGLN1, Q9GZT9] | below the threshold
116 | LLQEEWETVM [PTH1R, Q03431] | 4.2

From PMC9482650, “Quantitative fragmentomics allow affinity mapping of interactomes” (Nature Communications, 2022)
